Biological target: phospholipase B D2
Assay: IP-MS (UBQLN2 immunoprecipitation, mass spectrometry)
Conditions: iMNs; read off a plot

Ubiquilin-2, wild type (from UniProt Q9UHD9) P497H; P506T; P509S; P525S
other: Student's T-test Difference: 0.47

— PMC12813162
